Measured values published in patent US20080292632A1 (US Dept. of Health and Human Services, published 2008).

What was measured:
Assay in all cases: IRTA Fc-fusion
[1] = molecular target: T1, IRTA3 extracellular domain-Fc fusion protein (human, UniProt Q96P31 18-573)
T1 construct: Whole entry named; also called IRTA3-Fc; IRTA3 (Fc-fusion); not shown: human IgG1 hinge and Fc
T1 sequence: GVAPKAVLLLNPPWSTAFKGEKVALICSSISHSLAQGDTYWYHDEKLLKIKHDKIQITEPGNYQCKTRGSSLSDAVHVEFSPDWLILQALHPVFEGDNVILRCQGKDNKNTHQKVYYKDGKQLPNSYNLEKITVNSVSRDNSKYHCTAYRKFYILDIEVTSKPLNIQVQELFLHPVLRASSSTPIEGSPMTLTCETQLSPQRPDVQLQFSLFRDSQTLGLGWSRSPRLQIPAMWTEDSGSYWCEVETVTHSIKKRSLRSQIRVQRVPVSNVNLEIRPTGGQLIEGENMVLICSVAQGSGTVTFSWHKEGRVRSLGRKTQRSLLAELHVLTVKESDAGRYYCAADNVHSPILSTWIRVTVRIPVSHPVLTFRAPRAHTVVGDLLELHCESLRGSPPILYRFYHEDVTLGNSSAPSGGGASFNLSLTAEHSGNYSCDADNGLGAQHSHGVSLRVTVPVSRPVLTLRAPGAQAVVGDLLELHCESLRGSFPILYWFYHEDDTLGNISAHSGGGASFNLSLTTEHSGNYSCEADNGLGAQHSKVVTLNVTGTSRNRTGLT
Procedure: (§1) Each Fc-fusion protein indicated on the top of the column was captured on ELISA plates using secondary antibody (goat anti-human IgG). After washing, 100 ng/50 μl/well of MAbs were added, followed by HRP-labeled goat anti-mouse IgG and TMBZ substrate. The signals in ELISA were normalized for the amounts of each Fc-fusion protein on the plates using HRP-goat anti-human Fc. The controls are MAbs 9E10 (anti-myc tag, IgG1), BerH2 (anti-CD30, IgG1), T408 (anti-CD30, IgG2a), T420 (anti-CD30, IgG2b) and HRP-goat anti-human Fc (1/2400 dilution). […] Two days after transfection, the cells were harvested and incubated with 200 ng/100 μl of each MAb, followed by PE-conjugated goat anti-mouse IgG F(ab′)2. […] In the positive control panels, the MAbs cross-reactive to other IRTAs were used. They are F26 (anti-IRTA1 and anti-IRTA2, IgG2b), F109 (anti-IRTA3, IgG2b), F47 (anti-IRTA4, IgG2a), and F69 (anti-IRTA5, IgG2a). BerH2 (anti-CD30, IgG1) was also used. “+” indicates more than 1.5-fold than that of the control; “++” indicates more than 10-fold mean fluorescence intensity than that of the negative control.
(§2) ELISA. In a typical indirect ELISA for the screening of hybridomas, microtiter plates (MaxiSorp; Nalge Nunc, Rochester, N.Y.) were coated with 100 ng/50 μl/well of goat anti-human IgG in phosphate buffered saline (PBS) for 2 hours at room temperature. Next, 50 ng/100 μl/well of IRTA2-Fc in blocking buffer (25% DMEM, 5% FBS, 25 mM HEPES, 0.5% bovine serum albumin, 0.1% sodium azide in PBS) was added to each well and incubated for 2 hours at room temperature. After washing with PBS containing 0.05% Tween 20, 50 μl of the hybridoma supernatants were added and incubated for 2 hours at room temperature. After washing, the bound MAbs were detected by a 2-hour incubation with horseradish peroxidase (HRP)-labeled goat anti-mouse IgG (Jackson ImmunoResearch, Grove, Pa.) followed by tetramethylbenzidine (TMB) substrate kit (Pierce, Rockford, Ill.). In some experiments, other IRTA-Fc fusion proteins were used instead of IRTA2-Fc.

[2] = molecular target: T2, IRTA4 extracellular domain-Fc fusion protein (human, UniProt Q96LA5 20-401)
T2 construct: Whole entry named; also called IRTA4-Fc; IRTA4 (Fc-fusion); not shown: human IgG1 hinge and Fc
T2 sequence: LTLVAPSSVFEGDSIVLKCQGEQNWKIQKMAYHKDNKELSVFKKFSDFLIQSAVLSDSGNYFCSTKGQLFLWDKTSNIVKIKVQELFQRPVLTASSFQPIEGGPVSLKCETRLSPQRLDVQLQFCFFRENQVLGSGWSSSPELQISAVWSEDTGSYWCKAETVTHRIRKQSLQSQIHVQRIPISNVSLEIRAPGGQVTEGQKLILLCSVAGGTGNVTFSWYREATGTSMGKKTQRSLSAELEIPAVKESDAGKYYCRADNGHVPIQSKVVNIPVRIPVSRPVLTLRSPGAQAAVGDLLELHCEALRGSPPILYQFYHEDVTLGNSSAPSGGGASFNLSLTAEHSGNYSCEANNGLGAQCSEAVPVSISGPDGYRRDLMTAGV
Procedure: as §1, §2

[3] = molecular target: T3, IRTA5 extracellular domain-Fc fusion protein (human, UniProt Q96LA6 17-307)
T3 construct: Whole entry named; also called IRTA5-Fc; IRTA5 (Fc-fusion); not shown: human IgG1 hinge and Fc
T3 sequence: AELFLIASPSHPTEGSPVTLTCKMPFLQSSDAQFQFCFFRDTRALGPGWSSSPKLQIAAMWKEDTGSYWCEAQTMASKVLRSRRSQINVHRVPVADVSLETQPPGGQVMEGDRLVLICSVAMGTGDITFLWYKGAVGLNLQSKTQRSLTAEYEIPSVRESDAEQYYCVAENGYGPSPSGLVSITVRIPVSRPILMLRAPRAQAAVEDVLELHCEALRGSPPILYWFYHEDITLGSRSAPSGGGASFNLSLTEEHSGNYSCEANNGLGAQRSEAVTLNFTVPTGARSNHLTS
Procedure: as §1, §2

[4] = molecular target: T4, IRTA1 extracellular domain-Fc fusion protein (human, UniProt Q96PJ5 20-387)
T4 construct: Whole entry named; also called IRTA1-Fc; IRTA1 (Fc-fusion); not shown: human IgG1 hinge and Fc
T4 sequence: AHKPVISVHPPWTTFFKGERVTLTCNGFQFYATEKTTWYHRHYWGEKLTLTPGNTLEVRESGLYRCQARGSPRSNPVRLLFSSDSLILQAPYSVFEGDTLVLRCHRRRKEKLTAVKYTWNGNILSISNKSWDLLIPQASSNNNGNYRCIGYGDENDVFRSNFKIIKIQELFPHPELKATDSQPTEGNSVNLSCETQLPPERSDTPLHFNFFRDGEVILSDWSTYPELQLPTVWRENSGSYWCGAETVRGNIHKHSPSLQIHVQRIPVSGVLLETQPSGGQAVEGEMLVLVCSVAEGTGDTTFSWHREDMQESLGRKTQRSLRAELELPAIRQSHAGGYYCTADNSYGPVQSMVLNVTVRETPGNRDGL
Procedure: as §1, §2

binding result [1]: no binding
binding result [2]: no binding
binding result [3]: no binding
binding result [4]: no binding
B1: F25 (antibody, IgG2a, V domains shown)
VH: EVQLQQSGPELVKPGTSVKMSCKASGYSFTGYFMNWMMQNHGKSLEWIGRINLYNGDTFYNQKFKDKATLTVDKSSNTVHMEFRSLASEDSAVYYCASSLYYFDYWGQGTTFTVSS
VL: DIVMTQSHKFMSTSVGDRVNITCKASQDVGTNVAWYQQKPGQSPKLLIYWASTRQTGVPDRFTGSGSGTDFTLTISNVQSEDLSDYFCQQYSSYPLTFGAGTKLELKR
notes: mouse hybridoma MAb, IgG2a, kappa; also called MAb F25; biotin-MAb F25
